Values quoted from earlier work in paper doi:10.1101/2025.04.18.649563.

Biological target: F-actin (Oryctolagus cuniculus) (UniProt P68135)
Conditions: cited from earlier work

For LifeAct (from UniProt Q08641), the Kd is listed as 2200 nM.
